Test results: US20120135923A1 (IPSEN PHARMA S A S, published 2012)
Bridge positions count the residues as written; N and C are the ends. Square brackets hold non-standard residues; d marks the D form. Ends that are not written are not given here. 2Nal = N[C@@H](Cc1ccc2ccccc2c1)C(=O)O; Bta = N[C@@H](Cc1csc2ccccc12)C(=O)O; hPhe = N[C@@H](CCc1ccccc1)C(=O)O; Cha = N[C@@H](CC1CCCCC1)C(=O)O; dCha = N[C@H](CC1CCCCC1)C(=O)O; Chg = N[C@H](C(=O)O)C1CCCCC1; Pen = CC(C)(S)[C@H](N)C(=O)O; Nle = CCCC[C@H](N)C(=O)O; Ava = NCCCCC(=O)O; GABA = NCCCC(=O)O

B1: Hydantoin(C(O)-(Nle-Gly))-c(Cys-D-Ala-His-D-Phe-Arg-Trp-Pen)-NH2 (peptide)
peptide: [Nle]GC[dA]H[dF]RW[Pen]-NH2
modifications: disulfide 3-9; also: N-terminal hydantoin: C(O) bridges X1 N-terminal N and G2 backbone N, bridge at N via C(O), other end not in the chain
B2: Ac-Cha-c(Asp-His-D-Phe-Arg-Trp-Gaba-Lys)-NH2 (peptide)
peptide: Ac-[Cha]DH[dF]RW[GABA]K-NH2
modifications: lactam 2-8
SMILES: CC(=O)N[C@@H](CC1CCCCC1)C(=O)N[C@H]1CC(=O)NCCCC[C@@H](C(N)=O)NC(=O)CCCNC(=O)[C@H](Cc2c[nH]c3ccccc23)NC(=O)[C@H](CCCNC(=N)N)NC(=O)[C@@H](Cc2ccccc2)NC(=O)[C@H](Cc2c[nH]cn2)NC1=O
B3: Ac-Nle-c(Cys-D-Cha-His-D-Phe-Arg-Trp-Cys)-NH2 (peptide)
peptide: Ac-[Nle]C[dCha]H[dF]RWC-NH2
modifications: disulfide 2-8
SMILES: CCCC[C@H](NC(C)=O)C(=O)N[C@H]1CSSC[C@@H](C(N)=O)NC(=O)[C@H](Cc2c[nH]c3ccccc23)NC(=O)[C@H](CCCNC(=N)N)NC(=O)[C@@H](Cc2ccccc2)NC(=O)[C@H](Cc2c[nH]cn2)NC(=O)[C@@H](CC2CCCCC2)NC1=O
B4: Ac-Nle-c(Cys-D-Ala-His-D-Phe-Arg-Trp-Gly-Cys)-NH2 (peptide)
peptide: Ac-[Nle]C[dA]H[dF]RWGC-NH2
modifications: disulfide 2-9
SMILES: CCCC[C@H](NC(C)=O)C(=O)N[C@H]1CSSC[C@@H](C(N)=O)NC(=O)CNC(=O)[C@H](Cc2c[nH]c3ccccc23)NC(=O)[C@H](CCCNC(=N)N)NC(=O)[C@@H](Cc2ccccc2)NC(=O)[C@H](Cc2c[nH]cn2)NC(=O)[C@@H](C)NC1=O

biological target: T1, human melanocortin receptor subtype 4 (hMC4-R) (human, UniProt P32245 1-332); assay: [125I]-NDP-α-MSH competition, membranes
T1 construct: whole, on cells; membranes of CHO-K1 cells
T1 sequence (P32245 whole entry): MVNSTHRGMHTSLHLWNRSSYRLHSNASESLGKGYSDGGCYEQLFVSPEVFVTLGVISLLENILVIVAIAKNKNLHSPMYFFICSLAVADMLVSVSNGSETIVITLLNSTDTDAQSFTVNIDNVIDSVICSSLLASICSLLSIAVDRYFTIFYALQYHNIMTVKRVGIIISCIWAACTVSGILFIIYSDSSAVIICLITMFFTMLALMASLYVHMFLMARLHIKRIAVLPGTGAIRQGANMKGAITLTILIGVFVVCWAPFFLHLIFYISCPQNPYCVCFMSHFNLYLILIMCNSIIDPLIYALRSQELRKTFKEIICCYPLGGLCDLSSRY
Procedure: (§1) Cellular membranes used for the in vitro receptor binding assays were obtained from transgenic CHO-K1 cells stably expressing hMC-R receptor subtypes 1, 3, 4 or 5. […] The pellets were resuspended in the same buffer and centrifuged at 50,000 g for 10 minutes at approximately 4° C. The washed pellets containing the cellular membranes were stored at approximately −80° C.
(§2) Competitive inhibition of [¹²⁵I](Tyr²)-(Nle⁴-D-Phe⁷)α-MSH ([¹²⁵I]-NDP-α-MSH, Amersham Biosciences®) binding was carried out in polypropylene 96 well plates. Cell membranes (1-10 μg protein/well) prepared as described above were incubated in 50 mM Tris-HCl at pH 7.4 containing 0.2% bovine serum albumin (BSA), 5 mM MgCl₂, 1 mM CaCl₂ and 0.1 mg/mL bacitracin, with increasing concentrations of the test compound and 0.1-0.3 nM […] for approximately 90-120 minutes at approximately 37° C. Bound [¹²⁵I]-NDP-α-MSH ligand was separated from free [¹²⁵I]-NDP-α-MSH by filtration through GF/C glass fiber filter plates (Unifilter®; Packard) presoaked with 0.1% (w/v) polyethylenimine (PEI), using a Packard Filtermate® harvester. Filters were washed three times with 50 mM Tris-HCl at pH 7.4 at a temperature of approximately 0-4° C. and then assayed for radioactivity using a Packard Topcount® scintillation counter. Binding data were analyzed by computer-assisted non-linear regression analysis (XL fit; IDBS).

Row | Binder | Ki [nM]
1 | B1 | 3.53

biological target: T2, human melanocortin receptor subtype 1 (hMC1-R) (human, UniProt Q01726 1-317); assay: [125I]-NDP-α-MSH competition, membranes
T2 construct: whole, on cells; membranes of CHO-K1 cells
T2 sequence (Q01726 whole entry): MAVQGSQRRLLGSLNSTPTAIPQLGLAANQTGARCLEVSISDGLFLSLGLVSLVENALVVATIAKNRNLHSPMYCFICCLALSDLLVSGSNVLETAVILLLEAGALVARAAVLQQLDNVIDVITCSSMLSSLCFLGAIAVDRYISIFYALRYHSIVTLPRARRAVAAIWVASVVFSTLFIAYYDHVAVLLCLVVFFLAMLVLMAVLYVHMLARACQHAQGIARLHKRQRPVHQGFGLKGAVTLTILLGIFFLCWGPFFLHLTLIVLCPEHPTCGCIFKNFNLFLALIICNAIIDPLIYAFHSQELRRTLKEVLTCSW
Procedure: as §1, §2

Row | Binder | Ki [nM]
2 | B1 | 12.9

biological target: T3, human melanocortin receptor subtype 5 (hMC5-R) (human, UniProt P33032 1-325); assay: [125I]-NDP-α-MSH competition, membranes
T3 construct: whole, on cells; membranes of CHO-K1 cells
T3 sequence (P33032 whole entry): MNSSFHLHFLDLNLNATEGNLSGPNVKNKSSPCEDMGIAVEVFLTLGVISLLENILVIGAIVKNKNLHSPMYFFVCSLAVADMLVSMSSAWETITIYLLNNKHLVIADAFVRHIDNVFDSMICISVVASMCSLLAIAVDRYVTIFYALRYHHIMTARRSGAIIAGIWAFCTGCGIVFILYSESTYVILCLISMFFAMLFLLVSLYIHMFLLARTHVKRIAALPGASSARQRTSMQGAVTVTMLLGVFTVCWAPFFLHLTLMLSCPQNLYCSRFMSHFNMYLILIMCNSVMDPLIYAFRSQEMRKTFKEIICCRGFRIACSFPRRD
Procedure: as §1, §2

Row | Binder | Ki [nM]
3 | B1 | 27.1

biological target: T4, hMC1-R (human, UniProt Q01726 1-317); assay: competition with [125I]-NDP-α-MSH, CHO-K1 membranes
T4 construct: whole, on cells; Assayed as membranes of CHO-K1 cells expressing the receptor; also called hMC-R receptor subtype 1; melanocyte-specific receptor (MC1-R)
T4 sequence (Q01726 whole entry): as the sequence (Q01726 whole entry) above
Procedure: as §1, §2

Row | Binder | Ki [nM]
4 | Ac-[Nle]DH[dF]RW[GABA]K-NH2 (lactam 2-8) [Ac-Nle-c(Asp-His-D-Phe-Arg-Trp-Gaba-Lys)-NH2] | 0.0506
5 | B2 | 0.106
6 | B3 | 0.353
7 | Ac-[Nle]DH[dF]RW[Ava]K-NH2 (lactam 2-8) [Ac-Nle-c(Asp-His-D-Phe-Arg-Trp-Apn-Lys)-NH2] | 0.999
8 | Ac-[dR]DH[dF]RWAK-NH2 (lactam 2-8) [Ac-D-Arg-c(Asp-His-D-Phe-Arg-Trp-Ala-Lys)-NH2] | 0.79
9 | Ac-[Chg]DH[dF]RW[GABA]K-NH2 (lactam 2-8) [Ac-Chg-c(Asp-His-D-Phe-Arg-Trp-Gaba-Lys)-NH2] | 0.884
10 | Ac-CEH[dF]R[2Nal]AC-NH2 (disulfide 1-8) [Ac-c(Cys-Glu-His-D-Phe-Arg-2-Nal-Ala-Cys)-NH2] | 262
11 | Ac-[Nle]C[dI]H[dF]RWC-NH2 (disulfide 2-8) [Ac-Nle-c(Cys-D-Ile-His-D-Phe-Arg-Trp-Cys)-NH2] | 4.28
12 | Ac-[Nle]C[dV]H[dF]RWC-NH2 (disulfide 2-8) [Ac-Nle-c(Cys-D-Val-His-D-Phe-Arg-Trp-Cys)-NH2] | 13
13 | Ac-[Nle]D[dA]H[dF]R[Bta]AK-NH2 (lactam 2-9) [Ac-Nle-c(Asp-D-Ala-His-D-Phe-Arg-Bal-Ala-Lys)-NH2] | 4.89

biological target: T5, hMC3-R (human, UniProt P41968 1-323); assay: as above
T5 construct: whole, on cells; Assayed as membranes of CHO-K1 cells expressing the receptor; also called hMC-R receptor subtype 3; melacortin-3 (MC3-R)
T5 sequence (P41968 whole entry): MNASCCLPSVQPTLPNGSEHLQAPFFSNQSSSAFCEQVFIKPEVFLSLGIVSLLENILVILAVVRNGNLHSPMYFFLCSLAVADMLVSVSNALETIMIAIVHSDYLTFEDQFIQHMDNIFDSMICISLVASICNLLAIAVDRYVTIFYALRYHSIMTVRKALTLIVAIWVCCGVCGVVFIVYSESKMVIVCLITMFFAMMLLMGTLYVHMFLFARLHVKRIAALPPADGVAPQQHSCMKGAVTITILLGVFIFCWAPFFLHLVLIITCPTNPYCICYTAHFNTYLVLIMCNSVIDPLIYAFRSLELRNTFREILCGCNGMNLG
Procedure: as §1, §2

Row | Binder | Ki [nM]
14 | B4 | 149
15 | Ac-[Nle]DH[dF]RW[GABA]K-NH2 (lactam 2-8) [Ac-Nle-c(Asp-His-D-Phe-Arg-Trp-Gaba-Lys)-NH2] | 9.89
16 | Ac-[hPhe]DH[dF]RW[GABA]K-NH2 (lactam 2-8) [Ac-hPhe-c(Asp-His-D-Phe-Arg-Trp-Gaba-Lys)-NH2] | 25.2
17 | B2 | 11.8
18 | B3 | 2.08
19 | Ac-[Nle]DH[dF]RW[Ava]K-NH2 (lactam 2-8) [Ac-Nle-c(Asp-His-D-Phe-Arg-Trp-Apn-Lys)-NH2] | 300
20 | Ac-[dR]DH[dF]RWAK-NH2 (lactam 2-8) [Ac-D-Arg-c(Asp-His-D-Phe-Arg-Trp-Ala-Lys)-NH2] | 45.5
21 | Ac-[Chg]DH[dF]RW[GABA]K-NH2 (lactam 2-8) [Ac-Chg-c(Asp-His-D-Phe-Arg-Trp-Gaba-Lys)-NH2] | 223
22 | Ac-[Nle]C[dV]H[dF]RWC-NH2 (disulfide 2-8) [Ac-Nle-c(Cys-D-Val-His-D-Phe-Arg-Trp-Cys)-NH2] | 104

biological target: T6, hMC5-R (human, UniProt P33032 1-325); assay: as above
T6 construct: whole, on cells; Assayed as membranes of CHO-K1 cells expressing the receptor; also called hMC-R receptor subtype 5; melanocortin-5 receptor (MC5-R)
T6 sequence (P33032 whole entry): as the sequence (P33032 whole entry) above
Procedure: as §1, §2

Row | Binder | Ki [nM]
23 | B4 | 339
24 | Ac-[Nle]DH[dF]RW[GABA]K-NH2 (lactam 2-8) [Ac-Nle-c(Asp-His-D-Phe-Arg-Trp-Gaba-Lys)-NH2] | 16.3
25 | Ac-[hPhe]DH[dF]RW[GABA]K-NH2 (lactam 2-8) [Ac-hPhe-c(Asp-His-D-Phe-Arg-Trp-Gaba-Lys)-NH2] | 203
26 | B2 | 110
27 | Ac-[Nle]DH[dF]RW[Ava]K-NH2 (lactam 2-8) [Ac-Nle-c(Asp-His-D-Phe-Arg-Trp-Apn-Lys)-NH2] | 431
28 | Ac-[dR]DH[dF]RWAK-NH2 (lactam 2-8) [Ac-D-Arg-c(Asp-His-D-Phe-Arg-Trp-Ala-Lys)-NH2] | 493
29 | Ac-[Chg]DH[dF]RW[GABA]K-NH2 (lactam 2-8) [Ac-Chg-c(Asp-His-D-Phe-Arg-Trp-Gaba-Lys)-NH2] | 609
30 | Ac-CEH[dF]R[2Nal]AC-NH2 (disulfide 1-8) [Ac-c(Cys-Glu-His-D-Phe-Arg-2-Nal-Ala-Cys)-NH2] | 1460
31 | Ac-[Nle]C[dI]H[dF]RWC-NH2 (disulfide 2-8) [Ac-Nle-c(Cys-D-Ile-His-D-Phe-Arg-Trp-Cys)-NH2] | 12.5
32 | Ac-[Nle]C[dV]H[dF]RWC-NH2 (disulfide 2-8) [Ac-Nle-c(Cys-D-Val-His-D-Phe-Arg-Trp-Cys)-NH2] | 40
33 | Ac-[Nle]D[dA]H[dF]R[Bta]AK-NH2 (lactam 2-9) [Ac-Nle-c(Asp-D-Ala-His-D-Phe-Arg-Bal-Ala-Lys)-NH2] | 11.1

biological target: T7, hMC4-R (human, UniProt P32245 1-332); assay: as above
T7 construct: whole, on cells; Assayed as membranes of CHO-K1 cells expressing the receptor; also called hMC-R receptor subtype 4; melanocortin-4 (MC4-R)
T7 sequence (P32245 whole entry): as the sequence (P32245 whole entry) above
Procedure: as §1, §2

Row | Binder | Ki [nM]
34 | B4 | 3.01
35 | Ac-[Nle]DH[dF]RW[GABA]K-NH2 (lactam 2-8) [Ac-Nle-c(Asp-His-D-Phe-Arg-Trp-Gaba-Lys)-NH2] | 1.04
36 | Ac-[hPhe]DH[dF]RW[GABA]K-NH2 (lactam 2-8) [Ac-hPhe-c(Asp-His-D-Phe-Arg-Trp-Gaba-Lys)-NH2] | 3.37
37 | B2 | 1.49
38 | B3 | 1.41
39 | Ac-[Nle]DH[dF]RW[Ava]K-NH2 (lactam 2-8) [Ac-Nle-c(Asp-His-D-Phe-Arg-Trp-Apn-Lys)-NH2] | 11.1
40 | Ac-[Chg]DH[dF]RW[GABA]K-NH2 (lactam 2-8) [Ac-Chg-c(Asp-His-D-Phe-Arg-Trp-Gaba-Lys)-NH2] | 22.5
41 | Ac-CEH[dF]R[2Nal]AC-NH2 (disulfide 1-8) [Ac-c(Cys-Glu-His-D-Phe-Arg-2-Nal-Ala-Cys)-NH2] | 96.4
42 | Ac-[Nle]C[dI]H[dF]RWC-NH2 (disulfide 2-8) [Ac-Nle-c(Cys-D-Ile-His-D-Phe-Arg-Trp-Cys)-NH2] | 9
43 | Ac-[Nle]D[dA]H[dF]R[Bta]AK-NH2 (lactam 2-9) [Ac-Nle-c(Asp-D-Ala-His-D-Phe-Arg-Bal-Ala-Lys)-NH2] | 21.3
